Here are results for 19 molecules from US20140302063A1 (SECRETARY OF STATE FOR HEALTH, published 2014).

Substitutions are numbered along the chain they refer to.

The labels stand for the following.
B1: R2b-D8 (VHH)
VHH: QVQLVESGGGLVQPGGSLRLSCAASGFTFSWYDVGWYRRAPGKERELVADIASTRGTTNYADSVKGRFTISRDNAKNSVYLQMNSLKPEDTAVYYCNTRRDWRDYWGQGIQVTVSS
B2: R1a-F5 (VHH)
VHH: QLQLVESGGGLVQVGGSLRLSCAASGFPFDGYAIAWFRQAPGKEREGVSCRASDGNTYYAESLKGRLTMSTDNAKNTVYLQMNSLKPEDTAVYYCAAASWVASLWSPSEYDYWGQGTQVTVSS
B3: R1a-G5 (VHH)
VHH: QLQLVESGGGLVQPGGSLRLSCAASGSISRIVTMGWYRQASGKERELVAVIGNYGNTNYADSVKGRFTVSRDNAKDTAYLQMNGLNVEDTAIYYCKTSTTTPPYEYWGQGTQVTVSS
B4: R2b-D9 (VHH)
VHH: QVQLVESGGGLVQPGGSLRLSCLASGSAFSLYTMGWYRQAPGNQRELVAAITSGESTNYADSVKGRFTISRDNAKNTVYLQMNSLKPEDTAVYYCNADPLSTGWGQYSYWGQGTQVTVSS
B5: R2a-G8 (VHH)
VHH: QLQLAESGGGLVQAGGSLRLSCAASGSTLNNNAIGWFRQAPGKEREGVSCMNSRDGTTNYADSVKGRFTISRDVAKNTVYLQMNSLKPEDTAVYFCAVKGFAPFLIGCPWGKAEYDYWGQGTQVTVSS
B6: R1a-B6 (VHH)
VHH: QVQLVESGGGLVQPGGSLRLSCAASGSFFSRYRMGWYRQAPGEQRELVASIAYDGSTSYADPVKGRFTISRDNANTVHLQMYSLKPDDTAVYYCNLDPPGILYWGQGTQVTVSS
B7: R1a-C5 (VHH)
VHH: QVQLVESGGGLVQPGGSLRLSCAASNDIFSFYTMGWYLQAIGKQREPVAVIGNGGNTNYAESVKGRFTISRDGAKNTAYLQMNSLKPEDTAVYYCMASGPGGLNVWGQGTQVTVSS
B8: R2a-B9 (VHH)
VHH: QVQLVESGGGLVQPGGSLRLSCAASGSAFSINAMGWYRQAPGEEREFVAAITAGGNTYYADSAKARFTISRDNAKNMLYLQMNSLKPEDTAMYYCAATKAFGIATITADYELWGQGTQVTVSS
B9: R2b-E8 (VHH)
VHH: QVQLVESGGGLVQPGGSLRLSCAASGSFFSRYRMGWYRQAPGEQRELVAGITYDDSTNYAGSVKGRFTISRDNAKNTVHLQMNSLKPEDTAVYYCNLNPPGNLYWGQGTQVTVSS
B10: R1a-A5 (VHH)
VHH: QVQLVESGGGLVQPGGSLRLSCSASGSAVLFSTYPMSWYRQAPGKQRELVAAVTTDGSTSYADYAKGRFTISRDNAKNTVYLQMNSLKPEDTAVYYCNARDGFFNRYDYWGQGTQVTVSS
B11: R2a-E8 (VHH)
VHH: QLQLVESGGGLVQPGGSLRLSCTASGDIFVMYMIDWYRQAPGKQRELVASIDGRGTPMYADSVKGRFTISRDNAKNTVYLQMNSLKPEDTAVYSCHAKSPLVDNEYWGQGTQVTVSS
B12: R1a-E5 (VHH)
VHH: QLQLVESGGGLVQPGGSLRLSCTASGFSLDNYAIGWFRRAPGEEREGVSFITSTSAVTKYADSVKGRFTISRDNAKNTVYLQMTSLKPEDTAVYYCAGTRWVPTMKADEYNYWGQGTQVTVSS
B13: R1a-G6 (VHH)
VHH: QVQLVESGGGLVQSGGSLRLSCAASGSMSRIITMGWYRQAPGMERELVAVIGNNDNTVYGDSVQGRFTVSRDNAKNTAYLQMNSLNAEDTAMYYCKISTLTPPHEYWGQGTQVTVSS
B14: R1a-H6 (VHH)
VHH: QVQLVESGGGLVQAGDSLRLSCTASVLTFSLYRVGWFRQAPGKEREFVAAIDWGDGPTTYADSVKGRFTISRDNAERTAYLQINSLKPEDTAVYYCGAGNTGSSDRSSSYVHWGQGTQVTVSS
B15: R1a-F4 (VHH)
VHH: B3 VHH with L2V, A40G, S41P, G84N, I92M, T97C, Y104H, Y106F
B16: R2a-F9 (VHH)
VHH: QVQLVESGGGLVQPGGSLRLSCSASGSISSIVTMGWYRQAPGKERELVAVIGNYGNTNYADSVKGRFTVSRDNAKNTVYLQMNSLNVEDTAMYVCKFSSTVAPHEYWGQGTQVTVSS
B17: R1a-E6 (VHH)
VHH: QVQLVESGGGLVQPGGSLRLSCAASGFTLGAYAIAWFRQAPGKEREGVSCISPSDSFTEYGDSVKGRFTVSRDNAKNTVYLQMNSLQPEDTAVYYCAADPVCTAGWYRPSRFDLWGQGTQVTVSS
B18: R2a-H9 (VHH)
VHH: QVQLVESGGGLVQPGGSLRLSCAASTNIASFYTMGWYRQTPGQQRDVVAVIGNGGNTNYADSVKGRFTISRDGAKNTAHLQMNSLKPEDTDVYYCKASGPGGVILWGQGTQVTVSS
B19: R2a-G9 (VHH)
VHH: QVQLVESGGGLVQPGGSLRLSCAASDNIFSFYTMGWYRQSPGKERELVAVIGNGGNTNYADSVKGRFTISRDNGKNKAHLQMNSLKPEDTAVYYCKASGPGGVEVWGQGTQVTVSS

One experiment concerns the target A/Brisbane/59/2007 (H1N1-like) inactivated viral preparation (Influenza A virus A/Brisbane/59/2007 (H1N1-like)). Put plainly: ELISA, inactivated virus.
As for B1, the EC50 worked out at 14.8 µg/mL. Still for that read-out and setting: the value for B2 was 0.7 µg/mL; that for B3 was 0.29 µg/mL; that for B4 was 0.8 µg/mL. Same read-out and setting: the value for B5 was 1.86 µg/mL; that for B6 was 0.58 µg/mL.

B7 showed a 50% effective concentration (EC50) of 3.3 µg/mL. Still for that read-out and setting: the value for B8 was 9.84 µg/mL; that for B9 was 18.4 µg/mL; that for B10 was 0.38 µg/mL.

Turning to B11, the concentration for a half-maximal effect (EC50) turned out to be 1.42 µg/mL.

For a further experiment, the target named is A/California/7/2009 (H1N1) inactivated viral preparation (Influenza A virus A/California/7/2009 (H1N1)). Description: ELISA, inactivated virus.
In turn, B12 returned a concentration giving a half-maximal response (EC50) of 3.23 µg/mL. The same measure, in the same setting: the value for B13 was 0.3 µg/mL. The same measure, in the same setting: the value for B2 was 0.55 µg/mL. On to B14, for which the EC50 came out at 3.85 µg/mL. This EC50 lies about 7-fold higher than the previous one. The molecule B3 displayed a 50% effective concentration (EC50) of 1.73 µg/mL.

B15 had an EC50 of 0.79 µg/mL.

In the case of B4, the EC50 was determined as 0.9 µg/mL. The same measure, in the same setting: the value for B5 was 4.11 µg/mL; that for B6 was 0.39 µg/mL; that for B16 was 0.19 µg/mL. Same read-out and setting: the same measure for B17: 2.46 µg/mL; for B7: 1.71 µg/mL. The same measure, in the same setting: the same measure for B8: 1 µg/mL; for B9: 3.64 µg/mL; for B18: 0.97 µg/mL. Molecule B10 displayed an EC50 of 0.31 µg/mL. Still for that read-out and setting: the same measure for B19: 0.3 µg/mL.

Molecule B11 yielded a 50% effective concentration (EC50) of 0.51 µg/mL.
